# Measured values from PMC9163697, “Mechanistic insights into the activation of the IKK kinase complex by the Kaposi’s sarcoma herpes virus oncoprotein vFLIP” (The Journal of Biological Chemistry, 2022).
# B1: IKKγ(150–272) (domain or fragment, UniProt Q9Y6K9 150-272, looked up)
# chain: LGELQESQSRLEAATKECQALEGRARAASEQARQLESEREALQQQHSVQVDQLRMQGQSVEAALRMERQAASEEKRKLAQLQVAYHQLFQEYDNHIKSSVVGSERKRGMQLEDLKQQLQQAEE
# notes: IKKγ (Nemo), regulatory subunit of the IKK kinase complex, residues 150-272; also called Nemo; WT IKKγ
# Key:
# [1] = biological target: T1, WT vFLIP(1–177) (Kaposi's sarcoma-associated herpes …, UniProt Q76RF1 1-177); test: native gel or EMSA; blue native gel (4–20%), 8–10 μg of purified complexes of IKKγ(150–272) with vFLIP or complexes assembled from the concentrated proteins; bands excised and analysed by SDS-PAGE; conditions: both partners purified
# T1 construct: vFLIP of the Kaposi's sarcoma-associated herpes virus (KSHV), residues 1-177; also called recombinant vFLIP; source: mutants said to be expressed in E. coli
# [2] = biological target: the molecule itself; test: native MS; proteins and complexes exchanged into 200 mM ammonium acetate pH 8.5, 3.2 μM, nanoelectrospray, Synapt QToF; collision-induced dissociation of selected species
# [3] = biological target: T1, WT vFLIP(1–177); test: as above; conditions: both partners purified
binder,measurement,setting,value
B1,stoichiometry N,[1],1 vFLIP per IKKγ
same,binding result,[2],binds
same,stoichiometry N,[3],0.5 vFLIP per IKKγ
